From publication PMC10597343 come the findings set out here.

The series has as its target T1, AcrR (Escherichia coli) (UniProt P0ACS9).
T1 sequence: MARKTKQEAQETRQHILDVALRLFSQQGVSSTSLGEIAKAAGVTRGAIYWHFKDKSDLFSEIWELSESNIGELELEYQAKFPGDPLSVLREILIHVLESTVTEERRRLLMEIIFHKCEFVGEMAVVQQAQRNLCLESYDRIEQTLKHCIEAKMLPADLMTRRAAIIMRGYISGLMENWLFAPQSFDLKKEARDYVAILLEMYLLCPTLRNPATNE
In words: EMSA. To be noted: EMSA with LightShift Chemiluminescent EMSA Kit, AcrR 0, 0.4 and 1 uM, as in ref 35; buffer, salt, pH and temperature not stated. Background: In EMSA bound probe runs differently from free probe, usually more slowly.

“TGCAAGTAGTAAATATGACAAGTTGATGTCATAAATGTGTTTCAGCAACTCGGAGGTATGCATTATTCCCACCCAGAATAACCAACTTTATTTTTATGCGGTTTCACCGCACCCCGTGATGTCGCCGGGAAGCCCCGGTAAAAAATAATTAGCATTAGAATAGTTGCGAT (double strand) [flhDCpS2]”: the binding entry is reported as “no binding”.
“CTTGCCATGCGATTTCCTTTTATCTTTCGACACGTAAAACGAATACCGGGGTTATCGGTCTGAATTGCGCAAAGTTTACGTTTAATTGTTTTTTTTAATAGCGGGAATAAGGGGCAGAGAAAAGAGTATTTCGGCGACTAACAAAAAATGGCTGTTTTTGAAAAAAATTCTAAAGGTTGTTTTACGACAGACGATAACAGGGTTGACGGCGATTGAGCCGACGGGTGGAAACCCAATACGTAATCAACGA (double strand) [fliDSTp]”: the binding result was “no binding”.
